System: P68135
Test: TIRF microscopy of single actin filaments
Settings: other: TIRF microscopy of single actin filaments (depolymerization)

## alpha skeletal actin from rabbit muscle
  barbed end depolymerization rate (effective off-rate of ADP and ADP.Pi subunits): 3.4 ± 0.7 sub/s (mean ± SD)

Source: article doi:10.1101/2025.11.17.688760
